Test results reported in patent US20030138839A1.

Target: human MDM2 (human) (UniProt Q00987)
Test: cell-based or functional assay

Chain of human MDM2 (human) (Q00987 whole entry): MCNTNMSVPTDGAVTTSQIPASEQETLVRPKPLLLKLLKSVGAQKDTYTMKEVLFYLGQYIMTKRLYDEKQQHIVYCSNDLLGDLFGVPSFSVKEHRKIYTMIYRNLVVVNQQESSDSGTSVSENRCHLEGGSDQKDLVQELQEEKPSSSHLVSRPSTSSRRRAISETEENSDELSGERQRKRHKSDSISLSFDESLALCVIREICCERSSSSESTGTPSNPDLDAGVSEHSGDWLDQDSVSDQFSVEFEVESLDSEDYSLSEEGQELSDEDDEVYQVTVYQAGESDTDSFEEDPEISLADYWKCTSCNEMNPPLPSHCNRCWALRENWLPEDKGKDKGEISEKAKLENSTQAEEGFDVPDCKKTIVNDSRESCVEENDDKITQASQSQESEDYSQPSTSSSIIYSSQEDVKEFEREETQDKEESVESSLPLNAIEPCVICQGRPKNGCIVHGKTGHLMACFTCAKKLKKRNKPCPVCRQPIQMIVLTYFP

Question: Which reduction of the p53 level expressed from a transfected construct in Saos-2 cells (Western blot, relative to alpha-tubulin) does the source give for HA-tagged human TSG101 here?
Answer: Its reduction of the p53 level expressed from a transfected construct in Saos-2 cells (Western blot, relative to alpha-tubulin) is 70%.

Question: Which MDM2 half-life after cycloheximide (Western blot); approximately 15 min without TSG101 co-expression does the source give for human TSG101 protein here?
Answer: The MDM2 half-life after cycloheximide (Western blot); approximately 15 min without TSG101 co-expression was 28 min.
